Article PMC8998196, “A Second Gamma-Glutamylpolyamine Synthetase, GlnA2, Is Involved in Polyamine Catabolism in Streptomyces coelicolor” (International Journal of Molecular Sciences, 2022)

How the values were obtained:
GlnA3 (His-GlnA3) = biological target: T1, GlnA3 (His-GlnA3) (Streptomyces coelicolor, UniProt Q9KZC7); test: phosphate release (molybdate) modified GS assay; type: biochemical; conditions: 50 mM substrate, 10 µg enzyme, co-substrates glutamate and ATP, 30 °C, 5 min
T1 construct: His-tagged GlnA3
T1 sequence (Q9KZC7 1-466): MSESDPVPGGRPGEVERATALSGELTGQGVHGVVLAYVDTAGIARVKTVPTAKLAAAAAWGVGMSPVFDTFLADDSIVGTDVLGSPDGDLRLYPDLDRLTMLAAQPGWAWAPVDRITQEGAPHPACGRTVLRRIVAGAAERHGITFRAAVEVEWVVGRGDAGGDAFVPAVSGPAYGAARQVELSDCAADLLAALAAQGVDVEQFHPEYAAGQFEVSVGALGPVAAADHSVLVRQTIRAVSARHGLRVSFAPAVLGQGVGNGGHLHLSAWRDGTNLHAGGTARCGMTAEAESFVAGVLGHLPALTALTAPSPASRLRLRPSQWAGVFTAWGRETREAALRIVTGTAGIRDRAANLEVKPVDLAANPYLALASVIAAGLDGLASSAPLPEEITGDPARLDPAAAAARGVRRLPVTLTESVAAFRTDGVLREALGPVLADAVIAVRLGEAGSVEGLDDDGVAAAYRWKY

[1] = substrate: Nc1ncnc2c1ncn2[C@@H]1O[C@H](COP(=O)(O)OP(=O)(O)OP(=O)(O)O)[C@@H](O)[C@H]1O; test: phosphate release (molybdate) modified GS assay, Michaelis-Menten fit; type: biochemical, Streptomyces coelicolor; conditions: polyamine and glutamate as co-substrates, Mg2+, 30 °C, 5 min
[2] = substrate: N[C@@H](CCC(=O)O)C(=O)O; test: as above; type: biochemical, Streptomyces coelicolor; conditions: polyamine and ATP as co-substrates, Mg2+, 30 °C, 5 min, L form not given
[3] = substrate: NCCCCN; test: as above; type: biochemical, Streptomyces coelicolor; conditions: co-substrates glutamate and ATP, Mg2+, 30 °C, 5 min

NCCCNCCCCNCCCN [spermine] was tested, and the “phosphate release (molybdate) modified GS assay” value (GlnA3 (His-GlnA3)) was “GlnA3 demonstrated a significant specificity towards spermidine and spermine, compared with GlnA2”.

With NCCCCNCCCN [spermidine] the “phosphate release (molybdate) modified GS assay” value (GlnA3 (His-GlnA3)) was “GlnA3 demonstrated a significant specificity towards spermidine and spermine, compared with GlnA2”.

B1: GlnA2 (His-GlnA2) (Streptomyces coelicolor A3(2)) (protein)
chain: MDKQQEFVIRTLEERDIRFVRLWFTDVLGFLKSVAVAPAELEQAFDEGIGFDGSAIEGFARVYESDMIAKPDPSTFQVLPWRAEAPGTARMFCDILMPDGSPSFADPRYVLKRALARTSDLGFTFYTHPEIEFFLLKDKPVDGSVPTPADNSGYFDHTPQNIGMDFRRQAITMLESMGISVEFSHHEGAPGQQEIDLRYADALSTADNVMTFRLVMKQVALEQGLQATFMPKPFSEYPGSGMHTHLSLFEGDRNAFYESGAEYQLSKVGRSFIAGLLRHAAEISAVTNQWVNSYKRIWGGTERTAGAGGEAPSYICWGHNNRSALVRVPMYKPGKTGSARVEVRSIDSGANPYLTYAVLLAAGLKGIEEGYELPPGAEDDVWALSDAERRALGIEPLPQNLGEALALMERSDLVAETLGEHVFDFFLRNKRQEWEEYRSQVTAFELRKSLPVL
notes: dodecamer only modelled
B1 was tested, and the Km [1] was 130 ± 100 µM, the Km [2] was 1060 ± 200 µM and the Km [3] was 550 ± 100 µM.
